Results on five molecules are retold here after US20250327069A1 (CORNELL UNIVERSITY, published 2025).

In series [1] the test system is I-F1 PA14 Csy complex with Cas2/3 (Pseudomonas aeruginosa PA14). The series can be described thus: cell_activity. The following applies: CC PAM; interference assay, completely depleted.
The test system of series [2] is Tn6900 Cascade-TniQ wild type (with TnsABC) (Aeromonas salmonicida S44). Put plainly: cell_activity. The following applies: CC PAM in transposition screen; about 3-fold.
Tn6900 Cascade-TniQ wild type (with TnsABC) (Aeromonas salmonicida S44), sequence (chain, as listed by the source, chain 2 of 2): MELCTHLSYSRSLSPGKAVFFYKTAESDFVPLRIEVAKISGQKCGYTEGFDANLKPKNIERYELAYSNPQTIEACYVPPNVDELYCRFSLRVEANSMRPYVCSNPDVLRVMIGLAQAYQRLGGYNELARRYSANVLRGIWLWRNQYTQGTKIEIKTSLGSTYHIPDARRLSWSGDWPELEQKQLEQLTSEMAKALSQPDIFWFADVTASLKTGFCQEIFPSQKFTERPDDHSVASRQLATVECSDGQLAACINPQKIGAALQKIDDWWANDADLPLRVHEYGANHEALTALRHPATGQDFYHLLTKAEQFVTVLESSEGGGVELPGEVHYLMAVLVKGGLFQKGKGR
Tn6900 Cascade-TniQ wild type (with TnsABC) (Aeromonas salmonicida S44), sequence (chain, as listed by the source, chain 3 of 2): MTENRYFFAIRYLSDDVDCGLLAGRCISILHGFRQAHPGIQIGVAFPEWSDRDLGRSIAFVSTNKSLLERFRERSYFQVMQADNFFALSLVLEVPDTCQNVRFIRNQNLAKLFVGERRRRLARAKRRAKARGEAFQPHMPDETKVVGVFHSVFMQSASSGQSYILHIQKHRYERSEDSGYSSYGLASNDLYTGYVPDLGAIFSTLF
Series [3] relates to Tn6900 Cascade-TniQ, Cas8/5 A247Q+S248N Cas8/5 A247Q,S248N (Aeromonas salmonicida S44). Put plainly: cell_activity. The following applies: over half of transposition events at PAMs with -1 C.
Tn6900 Cascade-TniQ, Cas8/5 A247Q+S248N Cas8/5 A247Q,S248N (Aeromonas salmonicida S44), sequence (chain, as listed by the source A247Q S248N A247Q S248N, chain 2 of 2): as the sequence (chain, as listed by the source, chain 2 of 2) above
Tn6900 Cascade-TniQ, Cas8/5 A247Q+S248N Cas8/5 A247Q,S248N (Aeromonas salmonicida S44), sequence (chain, as listed by the source A247Q S248N A247Q S248N, chain 3 of 2): as the sequence (chain, as listed by the source, chain 3 of 2) above
Series [4] concerns the molecule itself. The series can be described thus: cryo-EM structure of the Cascade-TniQ full R-loop complex.
Series [5] deals with T1, Cas8/5 protein of the I-F3b Tn6900 Cascade (Aeromonas salmonicida S44 (Tn6900 …)).
T1 chain: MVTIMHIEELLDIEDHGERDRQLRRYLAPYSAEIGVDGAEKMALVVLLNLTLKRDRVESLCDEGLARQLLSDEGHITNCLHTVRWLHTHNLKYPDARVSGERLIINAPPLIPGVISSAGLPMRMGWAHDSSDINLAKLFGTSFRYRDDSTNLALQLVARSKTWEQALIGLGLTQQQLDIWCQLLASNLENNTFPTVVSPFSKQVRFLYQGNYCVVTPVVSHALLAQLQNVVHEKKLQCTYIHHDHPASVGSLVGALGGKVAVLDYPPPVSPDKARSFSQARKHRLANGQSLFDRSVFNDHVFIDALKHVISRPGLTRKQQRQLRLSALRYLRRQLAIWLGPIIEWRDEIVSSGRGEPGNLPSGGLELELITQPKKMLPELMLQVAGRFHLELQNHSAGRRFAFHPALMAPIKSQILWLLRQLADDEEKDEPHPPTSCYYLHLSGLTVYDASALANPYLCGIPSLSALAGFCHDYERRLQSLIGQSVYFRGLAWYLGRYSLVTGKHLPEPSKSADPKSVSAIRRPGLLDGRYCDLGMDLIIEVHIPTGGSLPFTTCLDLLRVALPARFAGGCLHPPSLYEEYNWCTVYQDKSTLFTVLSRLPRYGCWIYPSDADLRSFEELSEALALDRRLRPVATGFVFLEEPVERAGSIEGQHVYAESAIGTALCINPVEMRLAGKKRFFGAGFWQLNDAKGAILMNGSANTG
The series is described as above.

Consider PA14 crRNA-ffs ; CC-PAM ffs target, for which the enrichment after interference (depletion) (enrichment (depletion)) in series [1] is < 0.005.
In turn, “atypical crRNA ffs (60 nt) ; CC-PAM ffs target” registered a binding signal (fold enrichment) in series [2] of 3.
For “atypical crRNA ffs (60 nt) ; NN-PAM ffs plasmid pool”, the share of transposition events at PAMs with -1 C (% of events with C at -1) in series [3] is > 50.

B1: TniQ subunit (monomer) of the TniQ homo-dimer (other)
chain: MHLLVRPEPFADEALESYFLRLSQENGFERYRIFSGSVQDWLHTTDHAAAGAFPLELSRLNIFHASRSSGLRVRALQLVDRLTDGAPFRLLQLALCHSAISFGNHYKAVHRSGVDIPLSFIRVHQIPCCPDCLRESAYVRQCWHFKPYVGCHRHGGRLIYSCPACGESLNYLASESINHCQCGFDLRTASTVPAQPDEIQLSALAYGCSFESSNPLLAIGSLSARFGALYWYQQRYLSDHEAVRDDRALTKAIGHFTAWPDAFWRELQQMVDDALVRQTKPLNHTDFVDVFGSVVADCRQIPMRNTGQNFILKNLIGFLTDLVARHPQCRVANVGDLLLSAVDAATLLSTSVEQVRRLHHEGFLPLSIRPASRNTVSPHRAVFHLRHVVELRQARMQSHHDHSSTYLPAW
notes: One chain of the dimer, entered to record the self-association of TniQ; also called TniQ.1; TniQ.2; not shown: His6 tag named only in the plasmid name (pCOLADuet-1-His6-tniQ)
With B1, in series [4], the binding result is “binds”.

B2: TniQ transposition protein of the I-F3b element Tn6900 (Aeromonas salmonicida S44), homo-dimer as associated with Cascade (other)
chain: B1 chain
notes: Expressed in E. coli together with Cascade and purified as the Cascade-TniQ complex over Ni-NTA through the His6 tag on TniQ; also called His6-TniQ; TniQ dimer; not shown: His6 tag named only in the plasmid name (pCOLADuet-1-His6-tniQ)
As to B2, the binding result in series [5] was “binds”.
